Test results from PMC6061704 (Nucleic Acids Research, 2018).

Assays:
[1] = target: T1, N-terminal His-tagged SisHjm (Hjm/Hel308a helicase from Sulfolobus islandicus) (Sulfolobus islandicus, UniProt F0NDL2 1-715); assay: SEC
T1 sequence (looked up): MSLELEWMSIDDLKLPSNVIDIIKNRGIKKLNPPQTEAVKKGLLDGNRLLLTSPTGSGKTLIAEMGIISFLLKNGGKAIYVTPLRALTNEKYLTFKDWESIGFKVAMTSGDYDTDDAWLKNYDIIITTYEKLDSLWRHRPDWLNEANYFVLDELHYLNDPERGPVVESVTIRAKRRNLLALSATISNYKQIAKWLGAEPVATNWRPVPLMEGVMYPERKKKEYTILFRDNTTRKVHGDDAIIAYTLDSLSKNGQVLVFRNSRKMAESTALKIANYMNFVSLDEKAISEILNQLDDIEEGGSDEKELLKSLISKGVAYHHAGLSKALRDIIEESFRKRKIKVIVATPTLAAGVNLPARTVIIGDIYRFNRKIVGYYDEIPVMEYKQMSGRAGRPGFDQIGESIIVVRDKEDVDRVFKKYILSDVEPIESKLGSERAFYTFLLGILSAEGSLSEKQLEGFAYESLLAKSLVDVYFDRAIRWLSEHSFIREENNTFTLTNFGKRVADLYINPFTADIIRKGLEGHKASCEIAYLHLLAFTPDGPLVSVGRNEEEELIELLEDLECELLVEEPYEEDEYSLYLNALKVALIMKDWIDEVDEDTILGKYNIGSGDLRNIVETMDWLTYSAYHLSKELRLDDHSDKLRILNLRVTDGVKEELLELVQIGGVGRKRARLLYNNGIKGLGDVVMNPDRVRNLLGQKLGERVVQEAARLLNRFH

SEC = target: the molecule itself; assay: SEC

stoichiometry N [1]: ~1 Hjm monomer per PINA hexamer
B1: SisPINA (PIN domain-containing ATPase from Sulfolobus islandicus), recombinant, without tag (enzyme, UniProt F0NID4 1-505, looked up)
chain: MNDLMLDKSALLFGVSKYLEKGIITGNVLIHKSLLAELERESNDGLVSAEIALDEVKKLKDITERILVNFEIVGDDSKKGEANELSREYCLEKGCIIVTADETQKKICDAMGIQYNFLQPLKQGLSFESFFDDETMSLHIKEDTVPRAKKGKPGNWKFVNLSDKPMLSTDVRMIANEIINAVRLIKGSFVEIERRGSLIIQLGNYRVVITRPPLSDGWEITITRPVVRKRLEDYNLDERLIKRLEERAEGIIIAGAPGMGKTTFAQALAEYYMRLGKIVKTIESPRDMHLPPEITQYSKNYAEIGELHDILLLSRPDYTVYDEMRNDEDFKLYVDLRLAGVGMVGVVHATSPIDAIHRFVNRVDIGTIPNILDTIIFINSGNVSKVYTLEMTVKVPAGLKEADLARPVVEIKDLATGNTEYEIYVFGEQTMIVPVNRGITMSNMEFKISKIVNNIIPNATVKYEDGEYVIVIPKEEIGKYNRKLVQRLKRLEKKNNIKIKIKLSD
stoichiometry N (SEC): 6
